B4: recombinant human VEGF121 (R&D Systems) (ligand, UniProt P15692-9 27-147, looked up)
chain: APMAEGGGQNHHEVVKFMDVYQRSYCHPIETLVDIFQEYPDEIEYIFKPSCVPLMRCGGCCNDEGLECVPTEESNITMQIMRIKPHQGQHIGEMSFLQHNKCECRPKKDRARQEKCDKPRR
notes: also called rhVEGF121

The target of experiment [1] is T1, recombinant human VEGF165 (human, UniProt P15692-4 27-191, biotinylated in the competition assays).
T1 construct: also called hVEGF165; rhVEGF165
The experiment in a line: binding ELISA, coated rhVEGF165.

For experiment [2], the target named is T2, recombinant mouse VEGF164 (R&D Systems) (mouse, UniProt Q00731-2 27-190).
T2 construct: also called rmVEGF164; mVEGF164
T2 sequence (looked up): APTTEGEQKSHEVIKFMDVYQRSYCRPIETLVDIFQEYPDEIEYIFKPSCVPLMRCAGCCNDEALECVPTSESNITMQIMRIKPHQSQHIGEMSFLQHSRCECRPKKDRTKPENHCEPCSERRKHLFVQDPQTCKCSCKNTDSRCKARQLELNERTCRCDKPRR
The experiment in a line: binding ELISA, coated rmVEGF164. As for the experimental part:
Cross-reactivity to mouse VEGF164 is determined using a binding ELISA. […] Wells are blocked with a casein solution (1% in PBS). […] A mouse VEGF164 reactive mAb is included as positive control.
(In general: In an ELISA, binding on a coated surface is turned into a signal by an enzyme label.)

The target in experiment [3] is B4. The experiment in a line: binding ELISA, coated recombinant human VEGF121. How it is done:
(§1) Binding to recombinant human VEGF121 is assessed via a solid phase binding ELISA. […] Wells are blocked with a casein solution (1% in PBS).

Experiment [4] deals with T1, recombinant human VEGF165. The experiment in a line: competition AlphaScreen, bio-VEGF165 and VEGFR2-Fc. How it is done:
(§2) Finally, streptavidin donor beads (20 μg/ml) are added and after 1 hour of incubation in the dark, fluorescence is measured on the Envision microplate reader.

The target of experiment [5] is T1, recombinant human VEGF165. The experiment in a line: competition AlphaScreen, bio-VEGF165 and VEGFR1-Fc. As for the experimental part:
as §2
A general note: In Alpha technology, singlet oxygen from a donor bead excites a nearby acceptor bead.

Experiment [6] concerns the target T1, recombinant human VEGF165. The experiment in a line: competition ELISA, biotinylated VEGF165 to coated VEGFR2-Fc.
Experiment [7] has as its target T1, recombinant human VEGF165. The experiment in a line: competition ELISA, biotinylated VEGF165 to coated VEGFR1-Fc.
Experiment [8] concerns the target T1, recombinant human VEGF165. The experiment in a line: SPR (Biacore), immobilised VEGF165, Two State Reaction model. How it is done: Samples are injected for 2 min and allowed to dissociate up to 20 min at a flow rate of 45 μl/min. In between sample injections, the chip surface is regenerated with 100 mM HCl. HBS-EP+(Hepes buffer pH7.4+EDTA) is used as running buffer. Binding curves are fitted using a Two State Reaction model by Biacore T100 Evaluation Software v2.0.1.
^{(a)}Heterogeneous binding curve resulting in no 1:1 fit, curves are fitted using a Two State Reaction model by Biacore T100 Evaluation Software v2.0.1

Experiment [9] deals with T1, recombinant human VEGF165. The experiment in a line: SPR (Biacore), periplasmic extract over immobilised VEGF165, two phase decay fit. As for the experimental part: Dissociation rates of receptor-blocking VHHs are analyzed on Biacore (Biacore T100 instrument, GE Healthcare). HBS-EP+buffer is used as running buffer and experiments are performed at 25° C. […] After immobilization, surfaces are deactivated with 10 min injection of 1M ethanolamine pH8.5. […] Periplasmic extracts of VHHs are injected at a 10-fold dilution in running buffer for 2 min at 45 μl/min and allowed to dissociate for 10 or 15 min. Between different samples, the surfaces are regenerated with regeneration buffer. Data are double referenced by subtraction of the curves on the reference channel and of a blank running buffer injection. The dissociation phase of the processed curves is evaluated by fitting a two phase decay model in the Biacore T100 Evaluation software v2.0.1.
Background: In SPR one partner is held on a chip, and binding of the other changes the refractive index at the surface.

Experiment [10] has as its target T3, recombinant human VEGF165 (human, UniProt P15692-4 27-191, biotinylated in the competition assays).
T3 construct: Bought protein; also called hVEGF165; rhVEGF165
The experiment in a line: SPR Biacore, VEGF165.

Experiment [11] has as its target T4, VEGF (used to stimulate HUVEC cells) (UniProt P15692-4 27-191, limits assumed). The experiment in a line: cell-based or functional assay.
Experiment [12] addresses T4, VEGF (used to stimulate HUVEC cells). The experiment in a line: cell-based or functional assay. This is another data set of the same source.
For experiment [13] the target is unchanged. The experiment in a line: cell-based or functional assay. This is another data set of the same source.
Experiment [14] has the same target. The experiment in a line: cell-based or functional assay. The source holds these as a separate data set.
The target of experiment [15] is T3, recombinant human VEGF165. The experiment in a line: AlphaScreen, hVEGF165/hVEGFR2-Fc competition. On the set-up: % inhibition: concentration or dose not given beside the values.
Target sequence in this assay (P15692 other isoform, or with tags, fused parts or gaps): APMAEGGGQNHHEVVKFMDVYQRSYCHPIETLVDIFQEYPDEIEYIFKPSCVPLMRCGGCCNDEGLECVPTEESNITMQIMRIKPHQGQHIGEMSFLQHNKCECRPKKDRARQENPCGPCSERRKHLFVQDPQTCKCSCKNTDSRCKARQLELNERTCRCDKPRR
Experiment [16] has as its target T3, recombinant human VEGF165. The experiment in a line: AlphaScreen, hVEGF165/hVEGFR2-Fc competition.
In experiment [17] the target is T3, recombinant human VEGF165. The experiment in a line: AlphaScreen, hVEGF165/hVEGFR1-Fc competition, -HSA.
Experiment [18] has as its target T3, recombinant human VEGF165. The experiment in a line: AlphaScreen, hVEGF165/hVEGFR2-Fc competition, -HSA.
Experiment [19] addresses T3, recombinant human VEGF165. The experiment in a line: AlphaScreen, hVEGF165/hVEGFR1-Fc competition, -HSA. The source holds these as a separate data set.
Experiment [20] deals with T3, recombinant human VEGF165. The experiment in a line: AlphaScreen, hVEGF165/hVEGFR2-Fc competition, -HSA. The source holds these as a separate data set.
For experiment [21], the target named is T3, recombinant human VEGF165. The experiment in a line: AlphaScreen, hVEGF165/hVEGFR2-Fc competition, +5 uM HSA. As for the experimental part:
(§3) These 2 competition assays are also performed after preincubation of the VHHs with 5 μM human serum albumin.

For experiment [22], the target named is T3, recombinant human VEGF165. Described as above. How it is done:
as §3
This is another data set of the same source.

The target of experiment [23] is T5, human VEGFR2-Fc chimera (R&D Systems) (human, UniProt P35968 20-764).
T5 construct: also called hVEGFR2-Fc; VEGFR2-huFc
The experiment in a line: binding ELISA on coated recombinant human VEGF121 (Example 12.7), positive control, OD 450 nm. As for the experimental part: as §1

The next experiment concerns the target T6, VEGFC (UniProt P49767 103-227, limits assumed).
T6 sequence (looked up): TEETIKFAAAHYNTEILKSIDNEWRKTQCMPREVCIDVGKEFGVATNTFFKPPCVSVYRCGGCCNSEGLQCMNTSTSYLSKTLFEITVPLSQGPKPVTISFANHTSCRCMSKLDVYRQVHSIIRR
The experiment in a line: binding ELISA on coated VEGFC (Example 12.8), receptor positive control, OD 450 nm. As for the experimental part:
Binding to VEGFB, VEGFC, VEGFD and PIGF is assessed via a solid phase binding ELISA. […] Wells are blocked with a casein solution (1% in PBS). […] As positive controls serial dilutions of the appropriate receptors are taken along and detected with horseradish peroxidase (HRP)-conjugated goat anti-human IgG, Fc specific antibody (Jackson Immuno Research Laboratories Inc., West Grove, Pa., USA) and a subsequent enzymatic reaction in the presence of the substrate TMB (3,3′,5,5′-tetramentylbenzidine) (Pierce, Rockford, Ill., USA).

Where two headings read alike, the source gives them in different places.

B1: VEGFBII23A06 (VHH, not shown: small tags and cut ends)
VHH: EVQLVESGGGLVQPGDSLKLSCAFSGRTFSSYSMGWFRQAQGKEREFVVAISSGGFIYDAVSLEGRFTISRDNTKNTVYLQTPSLKPEDTAVYYCAASRAYGSSRLRLADTYDYWGQGTQVTVSS
As usually defined, the EC50 is the concentration at which the effect is half-maximal. By IC50 is commonly meant the point on the concentration scale where inhibition reaches its midpoint. As a reminder, the Kd is the free concentration of one partner at which half of the binding sites on the other are occupied at equilibrium, for simple one-to-one binding. As for B1, the EC50 was 0.531 nM in experiment [1] and 0.928 nM in experiment [3]. Also, the binding result in experiment [2] was “no binding (tested: dilution series 500 nM-32 pM)”. Also, the IC50 in experiment [4] stood at 0.25 nM; in experiment [5] it was 0.4 nM; in [6] it was 3 nM; in experiment [7], 0.9 nM. Besides, in experiment [8], the Kd came out at 0.7 nM. The “kd (fast)” value in experiment [9] is 0.017. In addition, in experiment [9], the “kd (slow)” value turned out to be 3.7e-05.

B2: VEGFBII23B04 (VHH, not shown: small tags and cut ends)
VHH: EVQLVESGGGLVQTGDSLRLSCEVSGRTFSSYSMGWFRQAQGKEREFVVAISKGGYKYDSVSLEGRFTISKDNAKNTVYLQINSLKPEDTAVYYCASSRAYGSSRLRLADTYEYWGQGTQVTVSS
notes: also called VEGFBII23B4; VEGFBII23B04 (wt)
As a reminder, the % inhibition is the percentage by which the read-out fell short of the control. Turning to B2, the Kd in experiment [10] was found to be 0.56 nM. Also, the “IC50, VEGF HUVEC proliferation assay” value amounted to 0.36 nM in experiment [11] and 0.68 nM in experiment [13]. The “IC50, VEGF HUVEC Erk phosphorylation assay” value in experiment [12] was determined as 0.37 nM. The “% inhibition, VEGF HUVEC proliferation assay” value in experiment [13] was 92%. In experiment [14], the “% inhibition, VEGF HUVEC proliferation assay, -HSA” value was 87%. Besides, in [14], the “IC50, VEGF HUVEC proliferation assay, +HSA” value was 0.69 nM. The “IC50, VEGF HUVEC proliferation assay, -HSA” value in experiment [14] turned out to be 0.78 nM. Further, the “% inhibition” value in experiment [15] and in experiment [16] was 100% each time. Moreover, the IC50 came out at 0.169 nM in experiment [15]; 0.152 nM in experiment [16]; 0.45 nM in experiment [17]; 0.22 nM in [18]; 0.43 nM in experiment [19]; 0.19 nM in experiment [20]. The IC50 in experiment [21] came to 0.3 nM; in [22] it was 0.2 nM. Also, the “% inh” value in experiment [17] worked out at 48%; in experiment [18], 100%; in experiment [19], 44%; in [20] it was 100%; in [21], 100%; in experiment [22] it was 100%.

B3: VEGFBII23B04 (VHH, not shown: small tags and cut ends)
VHH: EVQLVESGGGLVQTGDSLRLSCEVSGRTFSSYSMGWFRQAQGKEREFVVAISKGGYKYDSVSLEGRFTISKDNAKNTVYLQINSLKPEDTAVYYCASSRAYGSSRLRLADTYEYWGQGTQVTVSS
notes: also called VEGFBII23B4
B3: the EC50 in experiment [1] came to 0.297 nM; in experiment [3] it was 0.51 nM. Besides, the binding result in experiment [2] is on record as “no binding (tested: dilution series 500 nM-32 pM)”. Also, the IC50 was 0.16 nM in experiment [4], 0.9 nM in experiment [5], 2.1 nM in [6] and 0.5 nM in [7]. The Kd in [8] was 0.7 nM. For the same molecule, the “kd (fast)” value in experiment [9] came to 0.0088. Also, in experiment [9], the “kd (slow)” value was 4e-05.
As to B4, the binding result in [23] is reported as “binds”.

B5: human VEGFR2-Fc chimera (Fc fusion, UniProt P35968 20-764, looked up)
chain: ASVGLPSVSLDLPRLSIQKDILTIKANTTLQITCRGQRDLDWLWPNNQSGSEQRVEVTECSDGLFCKTLTIPKVIGNDTGAYKCFYRETDLASVIYVYVQDYRSPFIASVSDQHGVVYITENKNKTVVIPCLGSISNLNVSLCARYPEKRFVPDGNRISWDSKKGFTIPSYMISYAGMVFCEAKINDESYQSIMYIVVVVGYRIYDVVLSPSHGIELSVGEKLVLNCTARTELNVGIDFNWEYPSSKHQHKKLVNRDLKTQSGSEMKKFLSTLTIDGVTRSDQGLYTCAASSGLMTKKNSTFVRVHEKPFVAFGSGMESLVEATVGERVRIPAKYLGYPPPEIKWYKNGIPLESNHTIKAGHVLTIMEVSERDTGNYTVILTNPISKEKQSHVVSLVVYVPPQIGEKSLISPVDSYQYGTTQTLTCTVYAIPPPHHIHWYWQLEEECANEPSQAVSVTNPYPCEEWRSVEDFQGGNKIEVNKNQFALIEGKNKTVSTLVIQAANVSALYKCEAVNKVGRGERVISFHVTRGPEITLQPDMQPTEQESVSLWCTADRSTFENLTWYKLGPQPLPIHVGELPTPVCKNLDTLWKLNATMFSNSTNDILIMELKNASLQDQGDYVCLAQDRKTKKRHCVVRQLTVLERVAPTITGNLENQTTSIGESIEVSCTASGNPPPQIMWFKDNETLVEDSGIVLKDGNRNLTIRRVRKEDEGLYTCQACSVLGCAKVEAFFIIEGAQEKTNLE
notes: also called hVEGFR2-Fc; VEGFR2-huFc; not shown: human Fc part of the bought chimera; not described
In general, EC50 (read off the curve) refers to the concentration giving half of the maximal effect. With B5, the “EC50 (read off the curve)” value in the experiment with VEGFC is about 4 nM.

The record behind these values is patent US20140120095A1 (Boehringer Ingelheim, published 2014).
